Experimental data as given in IntAct's records for PubMed 15716268.

B1: NAD-dependent protein deacetylase sirtuin-1 (Mus musculus), Q923E4 (parent)
chain: MADEVALALQAAGSPSAAAAMEAASQPADEPLRKRPRRDGPGLGRSPGEPSAAVAPAAAGCEAASAAAPAALWREAAGAAASAEREAPATAVAGDGDNGSGLRREPRAADDFDDDEGEEEDEAAAAAAAAAIGYRDNLLLTDGLLTNGFHSCESDDDDRTSHASSSDWTPRPRIGPYTFVQQHLMIGTDPRTILKDLLPETIPPPELDDMTLWQIVINILSEPPKRKKRKDINTIEDAVKLLQECKKIIVLTGAGVSVSCGIPDFRSRDGIYARLAVDFPDLPDPQAMFDIEYFRKDPRPFFKFAKEIYPGQFQPSLCHKFIALSDKEGKLLRNYTQNIDTLEQVAGIQRILQCHGSFATASCLICKYKVDCEAVRGDIFNQVVPRCPRCPADEPLAIMKPEIVFFGENLPEQFHRAMKYDKDEVDLLIVIGSSLKVRPVALIPSSIPHEVPQILINREPLPHLHFDVELLGDCDVIINELCHRLGGEYAKLCCNPVKLSEITEKPPRPQKELVHLSELPPTPLHISEDSSSPERTVPQDSSVIATLVDQATNNNVNDLEVSESSCVEEKPQEVQTSRNVENINVENPDFKAVGSSTADKNERTSVAETVRKCWPNRLAKEQISKRLEGNQYLFVPPNRYIFHGAEVYSDSEDDVLSSSSCGSNSDSGTCQSPSLEEPLEDESEIEEFYNGLEDDTERPECAGGSGFGADGGDQEVVNEAIATRQELTDVNYPSDKS
partner: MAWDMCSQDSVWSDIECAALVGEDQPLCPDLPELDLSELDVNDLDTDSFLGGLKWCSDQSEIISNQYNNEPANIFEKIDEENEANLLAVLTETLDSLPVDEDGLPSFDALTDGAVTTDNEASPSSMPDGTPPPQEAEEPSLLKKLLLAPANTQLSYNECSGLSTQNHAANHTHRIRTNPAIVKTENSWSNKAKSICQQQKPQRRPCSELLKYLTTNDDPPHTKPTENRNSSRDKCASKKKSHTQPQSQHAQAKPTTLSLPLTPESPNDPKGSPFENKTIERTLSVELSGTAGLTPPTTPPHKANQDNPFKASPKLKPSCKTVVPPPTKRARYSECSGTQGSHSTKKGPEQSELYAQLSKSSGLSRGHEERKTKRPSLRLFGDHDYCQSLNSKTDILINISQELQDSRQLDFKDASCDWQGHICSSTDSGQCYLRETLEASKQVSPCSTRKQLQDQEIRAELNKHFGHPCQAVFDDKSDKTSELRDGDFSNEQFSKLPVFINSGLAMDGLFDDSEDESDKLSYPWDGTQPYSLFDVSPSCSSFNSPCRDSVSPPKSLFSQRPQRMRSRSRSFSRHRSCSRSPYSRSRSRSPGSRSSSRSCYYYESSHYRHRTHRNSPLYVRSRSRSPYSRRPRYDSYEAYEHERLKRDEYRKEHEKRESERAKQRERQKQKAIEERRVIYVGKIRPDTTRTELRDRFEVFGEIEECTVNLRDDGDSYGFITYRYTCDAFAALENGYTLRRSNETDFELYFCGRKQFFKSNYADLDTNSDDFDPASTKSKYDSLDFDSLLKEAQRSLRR

Variants of: B1
Details: with prgc1_mouse Ppargc1a

Question: How did the “effect of a mutation on the interaction” value turn out when G261A was run?
Answer: decreasing interaction
